Source: IntAct's records for PubMed 31515488

B1: Rieske domain-containing protein (Homo sapiens), Q8TAC1 (parent)
chain: MNLDGSAQDPEKREYSSVCVGREDDIKKSERMTAVVHDREVVIFYHKGEYHAMDIRCYHSGGPLHLGDIEDFDGRPCIVCPWHKYKITLATGEGLYQSINPKDPSAKPKWCSKGIKQRIHTVTVDNGNIYVTLSNEPFKCDSDFYATGDFKVIKSSS
partner: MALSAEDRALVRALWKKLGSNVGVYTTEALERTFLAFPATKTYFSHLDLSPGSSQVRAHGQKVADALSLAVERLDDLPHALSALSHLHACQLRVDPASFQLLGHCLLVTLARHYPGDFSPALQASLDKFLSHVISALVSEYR
B2: Keratin, type I cytoskeletal 20 (Homo sapiens), P35900 (parent)
chain: MDFSRRSFHRSLSSSLQAPVVSTVGMQRLGTTPSVYGGAGGRGIRISNSRHTVNYGSDLTGGGDLFVGNEKMAMQNLNDRLASYLEKVRTLEQSNSKLEVQIKQWYETNAPRAGRDYSAYYRQIEELRSQIKDAQLQNARCVLQIDNAKLAAEDFRLKYETERGIRLTVEADLQGLNKVFDDLTLHKTDLEIQIEELNKDLALLKKEHQEEVDGLHKHLGNTVNVEVDAAPGLNLGVIMNEMRQKYEVMAQKNLQEAKEQFERQTAVLQQQVTVNTEELKGTEVQLTELRRTSQSLEIELQSHLSMKESLEHTLEETKARYSSQLANLQSLLSSLEAQLMQIRSNMERQNNEYHILLDIKTRLEQEIATYRRLLEGEDVKTTEYQLSTLEERDIKKTRKIKTVVQEVVDGKVVSSEVKEVEENI
partner: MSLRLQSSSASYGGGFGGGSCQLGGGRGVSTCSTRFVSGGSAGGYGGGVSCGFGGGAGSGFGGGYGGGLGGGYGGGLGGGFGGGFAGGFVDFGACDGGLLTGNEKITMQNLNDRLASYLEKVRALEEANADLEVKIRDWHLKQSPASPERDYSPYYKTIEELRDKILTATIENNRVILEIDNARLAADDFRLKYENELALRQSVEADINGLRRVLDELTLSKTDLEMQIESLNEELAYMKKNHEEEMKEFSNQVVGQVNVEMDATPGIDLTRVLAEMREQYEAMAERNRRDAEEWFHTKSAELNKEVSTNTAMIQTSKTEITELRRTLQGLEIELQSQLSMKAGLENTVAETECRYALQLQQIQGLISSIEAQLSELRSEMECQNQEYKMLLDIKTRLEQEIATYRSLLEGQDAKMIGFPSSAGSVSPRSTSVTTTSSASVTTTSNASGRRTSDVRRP
B3: Microtubule-associated tumor suppressor candidate 2 (Homo sapiens), Q5JR59-3 (parent)
chain: MGHCCCKPYNCLQCLDKTNESALVKEKELSIELANIRDEVAFHTAKCEKLQKEKEELERRFEDEVKRLGWQQQAELQELEERLQLQFEAEMARLQEEHGDQLLSIRCQHQEQVEDLTASHDAALLEMENNHTVAITILQDDHDHKVQELMSTHELEKKELEENFEKLRLSLQDQVDTLTFQSQSLRDRARRFEEALRKNTEEQLEIALAPYQHLEEDMKSLKQVLEMKNQQIHEQEKKILELEKLAEKNIILEEKIQVLQQQNEDLKARIDQNTVVTRQLSEENANLQEYVEKETQEKKRLSRTNEELLWKLQTGDPTSPIKLSPTSPVYRGSSSGPSSPARVSTTPR
partner: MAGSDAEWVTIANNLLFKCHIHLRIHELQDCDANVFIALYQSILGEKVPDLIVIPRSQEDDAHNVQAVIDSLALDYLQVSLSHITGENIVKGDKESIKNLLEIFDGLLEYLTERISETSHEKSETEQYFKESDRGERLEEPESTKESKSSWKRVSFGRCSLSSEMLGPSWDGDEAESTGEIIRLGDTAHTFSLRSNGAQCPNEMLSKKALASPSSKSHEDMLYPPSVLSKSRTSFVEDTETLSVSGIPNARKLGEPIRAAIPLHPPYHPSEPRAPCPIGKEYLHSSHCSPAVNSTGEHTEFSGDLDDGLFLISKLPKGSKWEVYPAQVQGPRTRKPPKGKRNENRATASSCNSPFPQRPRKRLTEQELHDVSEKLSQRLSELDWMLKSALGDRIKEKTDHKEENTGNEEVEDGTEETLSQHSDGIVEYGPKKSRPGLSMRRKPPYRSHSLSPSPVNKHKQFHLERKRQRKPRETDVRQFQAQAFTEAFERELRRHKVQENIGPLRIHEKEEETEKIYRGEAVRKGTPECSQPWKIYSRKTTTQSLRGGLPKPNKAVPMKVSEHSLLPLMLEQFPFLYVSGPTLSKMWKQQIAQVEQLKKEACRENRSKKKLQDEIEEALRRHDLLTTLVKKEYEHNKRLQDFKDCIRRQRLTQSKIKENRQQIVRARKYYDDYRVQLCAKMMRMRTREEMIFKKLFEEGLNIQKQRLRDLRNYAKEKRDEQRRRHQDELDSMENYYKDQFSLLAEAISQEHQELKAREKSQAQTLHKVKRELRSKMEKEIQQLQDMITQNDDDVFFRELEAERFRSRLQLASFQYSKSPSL
B4: Ankyrin repeat and BTB/POZ domain-containing protein 1 (Homo sapiens), Q969K4 (parent)
chain: MDTSDLFASCRKGDVGRVRYLLEQRDVEVNVRDKWDSTPLYYACLCGHEELVLYLLANGARCEANTFDGERCLYGALSDPIRRALRDYKQVTASCRRRDYYDDFLQRLLEQGIHSDVVFVVHGKPFRVHRCVLGARSAYFANMLDTKWKGKSVVVLRHPLINPVAFGALLQYLYTGRLDIGVEHVSDCERLAKQCQLWDLLSDLEAKCEKVSEFVASKPGTCVKVLTIEPPPADPRLREDMALLADCALPPELRGDLWELPFPCPDGFNSCPDICFRVAGCSFLCHKAFFCGRSDYFRALLDDHFRESEEPATSGGPPAVTLHGISPDVFTHVLYYMYSDHTELSPEAAYDVLSVADMYLLPGLKRLCGRSLAQMLDEDTVVGVWRVAKLFRLARLEDQCTEYMAKVIEKLVEREDFVEAVKEEAAAVAARQETDSIPLVDDIRFHVASTVQTYSAIEEAQQRLRALEDLLVSIGLDC
B5: Segment polarity protein dishevelled homolog DVL-2 (Homo sapiens), O14641 (parent)
chain: MAGSSTGGGGVGETKVIYHLDEEETPYLVKIPVPAERITLGDFKSVLQRPAGAKYFFKSMDQDFGVVKEEISDDNARLPCFNGRVVSWLVSSDNPQPEMAPPVHEPRAELAPPAPPLPPLPPERTSGIGDSRPPSFHPNVSSSHENLEPETETESVVSLRRERPRRRDSSEHGAGGHRTGGPSRLERHLAGYESSSTLMTSELESTSLGDSDEEDTMSRFSSSTEQSSASRLLKRHRRRRKQRPPRLERTSSFSSVTDSTMSLNIITVTLNMEKYNFLGISIVGQSNERGDGGIYIGSIMKGGAVAADGRIEPGDMLLQVNDMNFENMSNDDAVRVLRDIVHKPGPIVLTVAKCWDPSPQAYFTLPRNEPIQPIDPAAWVSHSAALTGTFPAYPGSSSMSTITSGSSLPDGCEGRGLSVHTDMASVTKAMAAPESGLEVRDRMWLKITIPNAFLGSDVVDWLYHHVEGFPERREARKYASGLLKAGLIRHTVNKITFSEQCYYVFGDLSGGCESYLVNLSLNDNDGSSGASDQDTLAPLPGATPWPLLPTFSYQYPAPHPYSPQPPPYHELSSYTYGGGSASSQHSEGSRSSGSTRSDGGAGRTGRPEERAPESKSGSGSESEPSSRGGSLRRGGEASGTSDGGPPPSRGSTGGAPNLRAHPGLHPYGPPPGMALPYNPMMVVMMPPPPPPVPPAVQPPGAPPVRDLGSVPPELTASRQSFHMAMGNPSEFFVDVM
partner: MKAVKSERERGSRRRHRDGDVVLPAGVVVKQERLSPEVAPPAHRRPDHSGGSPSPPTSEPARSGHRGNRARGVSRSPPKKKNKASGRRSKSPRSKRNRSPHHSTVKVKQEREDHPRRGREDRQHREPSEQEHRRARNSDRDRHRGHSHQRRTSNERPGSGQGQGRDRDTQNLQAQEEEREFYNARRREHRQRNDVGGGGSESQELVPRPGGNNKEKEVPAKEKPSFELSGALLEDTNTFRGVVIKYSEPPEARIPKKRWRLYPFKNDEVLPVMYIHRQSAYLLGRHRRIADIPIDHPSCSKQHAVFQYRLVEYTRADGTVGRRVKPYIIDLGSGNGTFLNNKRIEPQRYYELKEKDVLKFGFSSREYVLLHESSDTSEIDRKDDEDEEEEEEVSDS
B6: E3 ubiquitin-protein ligase CBL-B (Homo sapiens), Q13191 (parent)
chain: MANSMNGRNPGGRGGNPRKGRILGIIDAIQDAVGPPKQAAADRRTVEKTWKLMDKVVRLCQNPKLQLKNSPPYILDILPDTYQHLRLILSKYDDNQKLAQLSENEYFKIYIDSLMKKSKRAIRLFKEGKERMYEEQSQDRRNLTKLSLIFSHMLAEIKAIFPNGQFQGDNFRITKADAAEFWRKFFGDKTIVPWKVFRQCLHEVHQISSGLEAMALKSTIDLTCNDYISVFEFDIFTRLFQPWGSILRNWNFLAVTHPGYMAFLTYDEVKARLQKYSTKPGSYIFRLSCTRLGQWAIGYVTGDGNILQTIPHNKPLFQALIDGSREGFYLYPDGRSYNPDLTGLCEPTPHDHIKVTQEQYELYCEMGSTFQLCKICAENDKDVKIEPCGHLMCTSCLTAWQESDGQGCPFCRCEIKGTEPIIVDPFDPRDEGSRCCSIIDPFGMPMLDLDDDDDREESLMMNRLANVRKCTDRQNSPVTSPGSSPLAQRRKPQPDPLQIPHLSLPPVPPRLDLIQKGIVRSPCGSPTGSPKSSPCMVRKQDKPLPAPPPPLRDPPPPPPERPPPIPPDNRLSRHIHHVESVPSRDPPMPLEAWCPRDVFGTNQLVGCRLLGEGSPKPGITASSNVNGRHSRVGSDPVLMRKHRRHDLPLEGAKVFSNGHLGSEEYDVPPRLSPPPPVTTLLPSIKCTGPLANSLSEKTRDPVEEDDDEYKIPSSHPVSLNSQPSHCHNVKPPVRSCDNGHCMLNGTHGPSSEKKSNIPDLSIYLKGDVFDSASDPVPLPPARPPTRDNPKHGSSLNRTPSDYDLLIPPLGEDAFDALPPSLPPPPPPARHSLIEHSKPPGSSSRPSSGQDLFLLPSDPFVDLASGQVPLPPARRLPGENVKTNRTSQDYDQLPSCSDGSQAPARPPKPRPRRTAPEIHHRKPHGPEAALENVDAKIAKLMGEGYAFEEVKRALEIAQNNVEVARSILREFAFPPPVSPRLNL
B7: Endophilin-B2 (Homo sapiens), Q9NR46 (parent)
chain: MDFNMKKLASDAGIFFTRAVQFTEEKFGQAEKTELDAHFENLLARADSTKNWTEKILRQTEVLLQPNPSARVEEFLYEKLDRKVPSRVTNGELLAQYMADAASELGPTTPYGKTLIKVAEAEKQLGAAERDFIHTASISFLTPLRNFLEGDWKTISKERRLLQNRRLDLDACKARLKKAKAAEAKATTVPDFQETRPRNYILSASASALWNDEVDKAEQELRVAQTEFDRQAEVTRLLLEGISSTHVNHLRCLHEFVKSQTTYYAQCYRHMLDLQKQLGRFPGTFVGTTEPASPPLSSTSPTTAAATMPVVPSVASLAPPGEASLCLEEVAPPASGTRKARVLYDYEAADSSELALLADELITVYSLPGMDPDWLIGERGNKKGKVPVTYLELLS
partner: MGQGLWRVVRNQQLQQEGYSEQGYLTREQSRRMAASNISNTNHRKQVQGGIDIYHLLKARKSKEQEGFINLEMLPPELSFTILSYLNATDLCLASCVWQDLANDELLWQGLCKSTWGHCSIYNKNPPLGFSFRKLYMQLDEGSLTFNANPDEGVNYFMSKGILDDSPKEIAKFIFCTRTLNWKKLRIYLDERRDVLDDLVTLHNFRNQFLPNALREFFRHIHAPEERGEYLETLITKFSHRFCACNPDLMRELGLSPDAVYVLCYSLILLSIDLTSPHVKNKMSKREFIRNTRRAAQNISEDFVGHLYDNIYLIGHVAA

Variants of: B1
Details: with hbat_human HBQ1, P09105

| effect of a mutation on the interaction | Variant |
| --- | --- |
| disrupting interaction strength | D38A |

Variants of: B2
Details: with KRT13, P13646

| effect of a mutation on the interaction | Variant |
| --- | --- |
| with no effect | S129N |
| with no effect | S309Y |

Variants of: B3
Details: with cep95_human CEP95, Q96GE4

| effect of a mutation on the interaction | Variant |
| --- | --- |
| with no effect | A89V |

Variants of: B4
Details: with ef1d_human EEF1D

| effect of a mutation on the interaction | Variant |
| --- | --- |
| with no effect | R386H |

Variants of: B4
Details: with ef1a2_human EEF1A2, Q05639
ef1a2_human EEF1A2, Q05639, sequence (Q05639 whole entry): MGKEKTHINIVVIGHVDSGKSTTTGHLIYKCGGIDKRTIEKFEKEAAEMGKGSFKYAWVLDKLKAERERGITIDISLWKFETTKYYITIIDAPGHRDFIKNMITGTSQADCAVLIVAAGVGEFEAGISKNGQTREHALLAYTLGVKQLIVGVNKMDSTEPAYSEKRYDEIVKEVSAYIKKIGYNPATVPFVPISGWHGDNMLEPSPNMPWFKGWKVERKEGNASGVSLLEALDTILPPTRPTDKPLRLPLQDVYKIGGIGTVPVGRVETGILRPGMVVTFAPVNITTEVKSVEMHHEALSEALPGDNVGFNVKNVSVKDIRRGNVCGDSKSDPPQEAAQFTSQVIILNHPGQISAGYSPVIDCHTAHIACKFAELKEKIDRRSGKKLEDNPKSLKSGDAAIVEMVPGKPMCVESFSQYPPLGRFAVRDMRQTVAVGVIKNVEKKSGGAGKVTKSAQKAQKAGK

| effect of a mutation on the interaction | Variant |
| --- | --- |
| with no effect | R386H |

Variants of: B4
Details: with cul3_human CUL3, Q13618

| effect of a mutation on the interaction | Variant |
| --- | --- |
| with no effect | R386H |

Variants of: B5
Details: with snip1_human SNIP1, Q8TAD8

| effect of a mutation on the interaction | Variant |
| --- | --- |
| with no effect | A53V |
| with no effect | T535I |

Variants of: B6
Details: with gors2_human GORASP2, Q9H8Y8

| effect of a mutation on the interaction | Variant |
| --- | --- |
| with no effect | S622T |

Variants of: B7
Details: with fbx8_human FBXO8, Q9NRD0

| effect of a mutation on the interaction | Variant |
| --- | --- |
| with no effect | V223M |
